Data on four molecules can be found in PMC2705653 (Molecular cell, 2009).

As a reminder, the Kd is a measure of binding affinity in units of concentration. Low values mean higher affinity, high ones lower affinity.

Some results are limits rather than exact numbers.

In assay [1] the target is T1, Swi6 V82E (S. pombe, UniProt P40381 1-328, V82E).
T1 sequence (looked up): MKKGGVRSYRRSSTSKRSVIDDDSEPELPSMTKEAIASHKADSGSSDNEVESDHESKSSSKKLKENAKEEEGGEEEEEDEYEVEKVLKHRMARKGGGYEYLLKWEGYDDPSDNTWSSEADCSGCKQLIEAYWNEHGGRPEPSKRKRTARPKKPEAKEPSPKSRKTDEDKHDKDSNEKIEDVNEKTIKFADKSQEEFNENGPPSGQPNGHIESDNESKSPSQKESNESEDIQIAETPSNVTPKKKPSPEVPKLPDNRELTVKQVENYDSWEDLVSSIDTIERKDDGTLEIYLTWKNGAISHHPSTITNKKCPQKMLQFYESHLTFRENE
The assay is described as follows: fluorescence polarisation. On the technique in general: In fluorescence polarisation assays a small probe gives low polarisation when free and higher when bound to something large.

The target in assay [2] is Clr4 chromodomain (residues 1-70) (S. pombe, UniProt O60016 1-70). The assay is described as follows: fluorescence polarisation.
Sequence of Clr4 chromodomain (residues 1-70) (O60016 1-70): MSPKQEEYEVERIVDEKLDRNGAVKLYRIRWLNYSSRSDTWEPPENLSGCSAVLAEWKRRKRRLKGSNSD
The target in assay [3] is T2, Swi6, full length, wild type (S. pombe, UniProt P40381 1-328).
T2 sequence (looked up): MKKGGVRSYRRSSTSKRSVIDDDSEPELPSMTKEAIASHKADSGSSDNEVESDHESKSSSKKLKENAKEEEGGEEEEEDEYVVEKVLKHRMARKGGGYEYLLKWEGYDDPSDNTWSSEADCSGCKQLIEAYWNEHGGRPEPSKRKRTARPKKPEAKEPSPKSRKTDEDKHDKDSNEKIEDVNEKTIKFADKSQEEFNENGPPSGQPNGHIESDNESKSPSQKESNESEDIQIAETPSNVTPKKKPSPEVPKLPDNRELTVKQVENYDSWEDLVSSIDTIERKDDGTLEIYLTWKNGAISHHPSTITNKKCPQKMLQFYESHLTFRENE
Nature of the assay: fluorescence polarisation.

Assay [4] deals with T3, Swi6 E80V V82E (S. pombe, UniProt P40381 1-328, E80V | V82E).
T3 sequence (looked up): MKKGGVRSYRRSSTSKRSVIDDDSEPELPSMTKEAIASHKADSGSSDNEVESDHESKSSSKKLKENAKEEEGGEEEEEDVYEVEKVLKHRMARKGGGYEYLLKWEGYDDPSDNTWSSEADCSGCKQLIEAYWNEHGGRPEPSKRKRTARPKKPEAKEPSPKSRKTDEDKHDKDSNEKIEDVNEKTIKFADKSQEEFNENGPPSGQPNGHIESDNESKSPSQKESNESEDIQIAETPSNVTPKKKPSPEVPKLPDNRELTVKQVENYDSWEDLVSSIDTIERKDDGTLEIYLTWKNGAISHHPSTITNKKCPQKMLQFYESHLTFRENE
Nature of the assay: fluorescence polarisation.

The target in assay [5] is T4, Chp1 chromodomain E23V,V24M (S. pombe, UniProt Q10103 9-76, E23V | V24M).
T4 sequence (looked up): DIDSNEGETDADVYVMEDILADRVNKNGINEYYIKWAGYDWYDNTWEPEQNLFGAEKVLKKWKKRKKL
Nature of the assay: fluorescence polarisation.

Assay [6] deals with T5, Chp1 chromodomain (residues 15-75) for crystallization (S. pombe, UniProt Q10103 15-75).
T5 sequence (looked up): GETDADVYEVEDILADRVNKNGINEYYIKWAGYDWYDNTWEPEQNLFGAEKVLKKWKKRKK
Nature of the assay: crystal structure.

In assay [7] the target is T6, H3K9me3 peptide (isothermal titration calorimetry) (trimethyl-lysine at 9).
T6 chain: ARTKQTARKSTGGKAY
The assay is described as follows: ITC. For orientation: In ITC the heat of successive injections is recorded.

B1: H3K9me3 peptide (fluorescence polarization) (peptide)
chain: ARTKQTARKSTGGKAY
modifications: trimethyl-lysine at 9
With B1, the Kd was 1040 ± 100 nM in assay [1]; 600 ± 80 nM in assay [2]; 3340 ± 550 nM in assay [3]; 610 ± 120 nM in assay [4]; 14700 nM in assay [5].

B2: H3K9me3 peptide (crystallization) (peptide)
peptide: ARTKQTARKSTGGKAY
modifications: trimethyl-lysine at 9
Take B2: the binding result in assay [6] is “binds”.

B3: Chp1 chromodomain, wild type (for binding studies) (domain or fragment, S. pombe, UniProt Q10103 9-76, looked up)
chain: DIDSNEGETDADVYEVEDILADRVNKNGINEYYIKWAGYDWYDNTWEPEQNLFGAEKVLKKWKKRKKL
Turning to B3, in assay [7], the “fold higher affinity than Swi6” value is no less than 5 fold.

B4: fluorescein labeled H3K9me2 peptide (peptide)
chain: ARTKQTARKSTGGKAY
modifications: dimethyl-lysine at 9; fluorescein (position not given)
With B4, the Kd in assay [1] stood at 2190 ± 130 nM; in assay [2] it was 2860 ± 270 nM; in assay [3], 10300 ± 1690 nM; in assay [4], 1070 ± 30 nM.
